{"source": "the Human Domainome abundance scans (Beltran et al. 2025)", "parents": {"B1": {"name": "Myocardin-related transcription factor A, residues 341 to 383; numbered along this chain, Q969V6 (parent)", "chain": "GALPANLDDMKVAELKQELKLRSLPVSGTKTELIERLRAYQDQ"}}, "note": "± gives the uncertainty stated by the source."}
{"variants_of": "B1", "experiment": "abundance fitness (aPCA) (normalised: wild type 0, dead -1); higher = more abundant; growth selection in yeast, the domain comes from the species named", "settings": "Homo sapiens"}
{"variant": "GALPANLDDMKVAELKQELKLRSLPVSGTKTNLIERLRAYQDQ", "abundance fitness": "-0.357 ± 0.43"}
{"variant": "GALPANLDDMKVAELKQELKLRSLPVSGTKTRLIERLRAYQDQ", "abundance fitness": "-0.319 ± 0.055"}
{"variant": "GALPANLDDMKVAELKQELKLRSLPVSGTKTWLIERLRAYQDQ", "abundance fitness": "-1.15 ± 0.14"}
{"variant": "GALPANLDDMKVAELKQELKLRSLPVSGTKTLLIERLRAYQDQ", "abundance fitness": "-0.472 ± 0.081"}
{"variant": "GALPANLDDMKVAELKQELKLRSLPVSGTKTMLIERLRAYQDQ", "abundance fitness": "-0.239 ± 0.16"}
{"variant": "GALPANLDDMKVAELKQELKLRSLPVSGTKTVLIERLRAYQDQ", "abundance fitness": "-0.093 ± 0.069"}
{"variant": "GALPANLDDMKVAELKQELKLRSLPVSGTKTGLIERLRAYQDQ", "abundance fitness": "-0.606 ± 0.071"}
{"variant": "GALPANLDDMKVAELKQELKLRSLPVSGTKTHLIERLRAYQDQ", "abundance fitness": "-0.375 ± 0.14"}
{"variant": "GALPANLDDMKVAELKQELKLRSLPVSGTKTYLIERLRAYQDQ", "abundance fitness": "-0.669 ± 0.12"}
{"variant": "GALPANLDDMKVAELKQELKLRSLPVSGTKTPLIERLRAYQDQ", "abundance fitness": "-0.533 ± 0.1"}
{"variant": "GALPANLDDMKVAELKQELKLRSLPVSGTKTILIERLRAYQDQ", "abundance fitness": "-0.149 ± 0.12"}
{"variant": "GALPANLDDMKVAELKQELKLRSLPVSGTKTQLIERLRAYQDQ", "abundance fitness": "-0.038 ± 0.086"}
{"variant": "GALPANLDDMKVAELKQELKLRSLPVSGTKTALIERLRAYQDQ", "abundance fitness": "-0.053 ± 0.063"}
{"variant": "GALPANLDDMKVAELKQELKLRSLPVSGTKTELIERNRAYQDQ", "abundance fitness": "-0.327 ± 0.12"}
{"variant": "GALPANLDDMKVAELKQELKLRSLPVSGTKTELIERDRAYQDQ", "abundance fitness": "-0.298 ± 0.087"}
{"variant": "GALPANLDDMKVAELKQELKLRSLPVSGTKTELIERERAYQDQ", "abundance fitness": "-0.504 ± 0.086"}
{"variant": "GALPANLDDMKVAELKQELKLRSLPVSGTKTELIERMRAYQDQ", "abundance fitness": "-0.165 ± 0.081"}
{"variant": "GALPANLDDMKVAELKQELKLRSLPVSGTKTELIERARAYQDQ", "abundance fitness": "-0.435 ± 0.076"}
{"variant": "GALPANLDDMKVAELKQELKLRSLPVSGTKTELIERGRAYQDQ", "abundance fitness": "-0.303 ± 0.067"}
{"variant": "GALPANLDDMKVAELKQELKLRSLPVSGTKTELIERCRAYQDQ", "abundance fitness": "-0.404 ± 0.13"}
{"variant": "GALPANLDDMKVAELKQELKLRSLPVSGTKTELIERKRAYQDQ", "abundance fitness": "-0.455 ± 0.14"}
{"variant": "GALPANLDDMKVAELKQELKLRSLPVSGTKRELIERLRAYQDQ", "abundance fitness": "0.012 ± 0.055"}
{"variant": "GALPANLDDMKVAELKQELKLRSLPVSGTKVELIERLRAYQDQ", "abundance fitness": "-0.035 ± 0.065"}
{"variant": "GALPANLDDMKVAELKQELKLRSLPVSGTKYELIERLRAYQDQ", "abundance fitness": "-0.193 ± 0.13"}
{"variant": "GALPANLDDMKVAELKQELKLRSLPVSGTKQELIERLRAYQDQ", "abundance fitness": "-0.138 ± 0.068"}
{"variant": "GALPANLDDMKVAELKQELKLRSLPVSGTKMELIERLRAYQDQ", "abundance fitness": "-0.089 ± 0.12"}
{"variant": "GALPANLDDMKVAELKQELKLRSLPVSGTKDELIERLRAYQDQ", "abundance fitness": "0.005 ± 0.099"}
{"variant": "GALPANLDDMKVAELKQELKLRSLPVSGTKPELIERLRAYQDQ", "abundance fitness": "-0.074 ± 0.077"}
{"variant": "GALPANLDDMKVAELKQELKLRSLPVSGTKKELIERLRAYQDQ", "abundance fitness": "-0.141 ± 0.088"}
{"variant": "GALPANLDDMKVAELKQELKLRSLPVSGTKEELIERLRAYQDQ", "abundance fitness": "0.085 ± 0.07"}
{"variant": "GALPANLDDMKVAELKQELKLRSLPVSGTKSELIERLRAYQDQ", "abundance fitness": "-0.061 ± 0.07"}
{"variant": "GALPANLDDMKVAELKQELKLRSLPVSGTKHELIERLRAYQDQ", "abundance fitness": "-0.129 ± 0.17"}
{"variant": "GALPANLDDMKVAELKQELKLRSLPVSGTKWELIERLRAYQDQ", "abundance fitness": "-0.246 ± 0.063"}
{"variant": "GALPANLDDMKVAELKQELKLRSLPVSGTKGELIERLRAYQDQ", "abundance fitness": "-0.011 ± 0.06"}
{"variant": "GALPANLDDMKVAELKQELKLRSLPVSGTKAELIERLRAYQDQ", "abundance fitness": "0.098 ± 0.058"}
{"variant": "GALPANLDDMKVAELKQELKLRSLPVSGTKIELIERLRAYQDQ", "abundance fitness": "0.092 ± 0.12"}
{"variant": "GALPANLDDMKVAELKQELKLRSLPVSGTKNELIERLRAYQDQ", "abundance fitness": "-0.332 ± 0.25"}
{"variant": "GALPANLDDMKVAELKQELKLRSLPVSGTKLELIERLRAYQDQ", "abundance fitness": "-0.145 ± 0.08"}
{"variant": "GALPANLDDMKVAELKQELKLRSLPVSGSKTELIERLRAYQDQ", "abundance fitness": "-0.084 ± 0.072"}
{"variant": "GALPANLDDMKVAELKQELKLRSLPVSGVKTELIERLRAYQDQ", "abundance fitness": "-0.26 ± 0.07"}
{"variant": "GALPANLDDMKVAELKQELKLRSLPVSGWKTELIERLRAYQDQ", "abundance fitness": "-0.601 ± 0.12"}
{"variant": "GALPANLDDMKVAELKQELKLRSLPVSGQKTELIERLRAYQDQ", "abundance fitness": "0.157 ± 0.14"}
{"variant": "GALPANLDDMKVAELKQELKLRSLPVSGRKTELIERLRAYQDQ", "abundance fitness": "-0.196 ± 0.069"}
{"variant": "GALPANLDDMKVAELKQELKLRSLPVSGYKTELIERLRAYQDQ", "abundance fitness": "-0.44 ± 0.21"}
{"variant": "GALPANLDDMKVAELKQELKLRSLPVSGTKTELAERLRAYQDQ", "abundance fitness": "-0.187 ± 0.081"}
{"variant": "GALPANLDDMKVAELKQELKLRSLPVSGTKTELWERLRAYQDQ", "abundance fitness": "-0.363 ± 0.077"}
{"variant": "GALPANLDDMKVAELKQELKLRSLPVSGTKTELQERLRAYQDQ", "abundance fitness": "0.116 ± 0.15"}
{"variant": "GALPANLDDMKVAELKQELKLRSLPVSGTKTELLERLRAYQDQ", "abundance fitness": "-0.146 ± 0.086"}
{"variant": "GALPANLDDMKVAELKQELKLRSLPVSGTKTELHERLRAYQDQ", "abundance fitness": "-0.186 ± 0.12"}
{"variant": "GALPANLDDMKVAELKQELKLRSLPVSGTKTELMERLRAYQDQ", "abundance fitness": "-0.144 ± 0.089"}
{"variant": "GALPANLDDMKVAELKQELKLRSLPVSGTKTELDERLRAYQDQ", "abundance fitness": "-0.546 ± 0.12"}
{"variant": "GALPANLDDMKVAELKQELKLRSLPVSGTKTELKERLRAYQDQ", "abundance fitness": "-0.031 ± 0.071"}
{"variant": "GALPANLDDMKVAELKQELKLRSLPVSGTKTELEERLRAYQDQ", "abundance fitness": "-0.151 ± 0.18"}
{"variant": "GALPANLDDMKVAELKQELKLRSLPVSGTKTELCERLRAYQDQ", "abundance fitness": "-0.139 ± 0.079"}
{"variant": "GALPANLDDMKVAELKQELKLRSLPVSGTKTELGERLRAYQDQ", "abundance fitness": "-0.305 ± 0.074"}
{"variant": "GALPANLDDMKVAELKQELKLRSLPVSGTKTELTERLRAYQDQ", "abundance fitness": "-0.151 ± 0.1"}
{"variant": "GALPANLDDMKVAELKQELKLRSLPVSGTKTELRERLRAYQDQ", "abundance fitness": "-0.146 ± 0.063"}
{"variant": "GALPANLDDMKVAELKQELKLRSLPVSGTKTELVERLRAYQDQ", "abundance fitness": "-0.21 ± 0.079"}
{"variant": "GALPANLDDMKVAELKQELKLRSLPVSGTKTELYERLRAYQDQ", "abundance fitness": "0.017 ± 0.12"}
